Laboratory results as given in patent publication US20210155689A1 (SHANGHAI PHARMAEXPLORER, published 2021).
Where a chain is given by its changes, count along the chain named.

B1: 405B8H3 (mouse antibody purified from hybridoma) (antibody, V domains shown)
VH: QVQLQQSGAELVRPGASVTLSCKASGYTFTDYEMHWVKQTPVHGLEWIGATDPETGNSAYNQKFKGKAIMTADKSSSTAYMELRSLTSEDSAVYYCISTGWNDWGQGTSLTVSS
VL: DIKMTQSPSSMYASLGERVTITCKASQDINSYLSWFQQKPGKSPKTLIYRADRLLDGVPSRFSGSGSGQDYSLTISSLEYGDMGIYYCLQYDEFPYTFGGGTKLEIK
notes: also called mAb103-405B8H3; 405B81-13
B2: 409B11E12 (mouse antibody purified from hybridoma) (antibody, V domains shown)
VH: B1 VH with P41T, G56S, N57Y, M70L, S98A
VL: B1 VL with I2L, D52N, G81E
notes: also called mAb104-409B11E12
B3: 409D4E10 (mouse antibody purified from hybridoma) (antibody, V domains shown)
VH: B1 VH with Y27N, G56D, S58T, M70L, A72T, S98T, T99S
VL: B1 VL with D52N, G81E, D92N
notes: also called mAb112-409D4E10
B4: 556F6B8 (mouse antibody purified from hybridoma) (antibody, V domains shown)
VH: RVQLKQSGPGLVQPSQSLSITCTVSGFSLIKYGVHWVRQSPGEGLEWLGVIWRGGITDYNAAFMSRLSITKDNSKSQVFFKMNSLQADDTAIYYCAKWDGPLAMDYWGQGTSVTVSS
VL: DIVMTQSHKFLSTSVGDRVSITCKASQDVGTTVAWYQQKPGQSPKLLIYWASTRHTGVPDRFTGSGSGTDFTLTISNVQSEDLADYFCQQYSSYPYTFGGGTKLEIK
notes: also called mAb123-556F6B8
B5: 105F1E10 (mouse antibody purified from hybridoma) (antibody, V domains shown)
VH: EVQLQQSGPELVKPGASVKMSCRASGYTFTDFKMHWMKQSHGKSLEWIGYIAPNNGGTAYNQKFRGKATLTVNESSNTAYMELRSLTSEDSAVYYCVDWDDVDYWGQGTTLTVSS
VL: B1 VL with P40S, D52N, L55V, G81E, D92V, Y96L, G100A, I106L
notes: also called mAb009-105F1E10
B6: 556F6B8 mouse-human chimeric antibody (antibody, V domains shown)
VH: B4 VH
VL: B4 VL
notes: also called mAb123-556F6B8; 556F8B8
B7: 105F1E10 mouse-human chimeric antibody (antibody, V domains shown)
VH: B5 VH
VL: B1 VL with P40S, D52N, L55V, G81E, D92V, Y96L, G100A, I106L
notes: also called mAb009-105F1E10
B8: 405B8H3 mouse-human chimeric antibody (antibody, V domains shown)
VH: B1 VH
VL: B1 VL
notes: also called mAb103-405B8H3
B9: 409B11E12 mouse-human chimeric antibody (antibody, V domains shown)
VH: B1 VH with P41T, G56S, N57Y, M70L, S98A
VL: B1 VL with I2L, D52N, G81E
notes: also called mAb104-409B11E12
B10: 409D4E10 mouse-human chimeric antibody (antibody, V domains shown)
VH: B1 VH with Y27N, G56D, S58T, M70L, A72T, S98T, T99S
VL: B1 VL with D52N, G81E, D92N
notes: also called mAb112-409D4E10

Target: T1, monkey LAG-3 (full length, on the cell surface) (monkey, UniProt P18627 24-525 (human entry))
T1 construct: also called HEK293-cLAG-3; monkey LAG-3 protein on the cell surface
T1 chain: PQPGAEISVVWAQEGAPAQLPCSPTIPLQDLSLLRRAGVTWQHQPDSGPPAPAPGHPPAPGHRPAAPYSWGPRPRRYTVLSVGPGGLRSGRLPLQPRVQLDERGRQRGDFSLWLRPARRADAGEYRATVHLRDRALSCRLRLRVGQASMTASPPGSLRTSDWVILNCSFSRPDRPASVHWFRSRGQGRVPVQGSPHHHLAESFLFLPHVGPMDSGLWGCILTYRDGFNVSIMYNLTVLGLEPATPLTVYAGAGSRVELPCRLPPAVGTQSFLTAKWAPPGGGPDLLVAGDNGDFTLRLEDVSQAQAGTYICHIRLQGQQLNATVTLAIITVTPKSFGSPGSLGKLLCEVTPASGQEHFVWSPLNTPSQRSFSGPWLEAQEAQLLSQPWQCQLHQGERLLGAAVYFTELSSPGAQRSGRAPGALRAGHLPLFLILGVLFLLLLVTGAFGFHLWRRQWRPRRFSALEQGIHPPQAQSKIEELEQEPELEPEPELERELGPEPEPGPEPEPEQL
Test: FACS, HEK293-cLAG-3; 0.013 nM
Source text: The pIRES plasmid with the monkey-derived full-length gene was transfected into the HEK293 cell line to construct a HEK293 stable cell line containing monkey LAG-3 (herein referred to as HEK293-cLAG-3 stable cell line). The HEK293-hLAG-3 stable cell line and HEK293-cLAG-3 stable cell line were expanded in a T-75 cell culture flask to a 90% confluence. The medium was aspirated, and the cells were washed with HBSS (Hanks' Balanced Salt Solution) 1-2 times, then treated with a enzyme-free cell dissociation fluid (Versene solution: Life technology) and the cells were collected. The cells were washed with HBSS buffer for 1-2 times. After counted, the cells were diluted with HBSS to 1-2×10⁶ cells per ml, added with 1% goat serum blocking solution, incubated on ice for 20-30 minutes, and then washed with HBSS for 2 times by centrifugation. The collected cells were suspended in the FACS buffer (HBSS+1% BSA) to 2×10⁶ cells/ml, added as 100 microliters per well to a 96-well FACS reaction plate, added with 100 microliters per well of the antibody sample to be tested, incubated on ice for 1-2 hours. The plate was washed twice with the FACS buffer by centrifugation, added with 100 microliters of fluorescent (Alexa 488)-labeled secondary antibodies per well, and incubated on ice for 0.5-1.0 hours. The plate was washed 2-3 times with FACS buffer by centrifugation, added with 100 μl fixative solution (4% Paraformaldehyde) per well to suspend the cells. 5-10 minutes later, it was washed 1-2 times with FACS buffer by centrifugation. The cells were suspended with 100 microliters of FACS buffer, FACS (FACSCalibur, BD) was used for detection and the results were analyzed.

Binder | Mean fluorescence intensity [MFI]
B1 | 4.2
B2 | 3.3
B3 | 3.5
B4 | 3.9
B5 | 4.1

target: T2, human LAG-3 on cells (HEK293-hLAG-3 stable cell line) (human, UniProt P18627 23-525); test: cell-based or functional assay
T2 sequence: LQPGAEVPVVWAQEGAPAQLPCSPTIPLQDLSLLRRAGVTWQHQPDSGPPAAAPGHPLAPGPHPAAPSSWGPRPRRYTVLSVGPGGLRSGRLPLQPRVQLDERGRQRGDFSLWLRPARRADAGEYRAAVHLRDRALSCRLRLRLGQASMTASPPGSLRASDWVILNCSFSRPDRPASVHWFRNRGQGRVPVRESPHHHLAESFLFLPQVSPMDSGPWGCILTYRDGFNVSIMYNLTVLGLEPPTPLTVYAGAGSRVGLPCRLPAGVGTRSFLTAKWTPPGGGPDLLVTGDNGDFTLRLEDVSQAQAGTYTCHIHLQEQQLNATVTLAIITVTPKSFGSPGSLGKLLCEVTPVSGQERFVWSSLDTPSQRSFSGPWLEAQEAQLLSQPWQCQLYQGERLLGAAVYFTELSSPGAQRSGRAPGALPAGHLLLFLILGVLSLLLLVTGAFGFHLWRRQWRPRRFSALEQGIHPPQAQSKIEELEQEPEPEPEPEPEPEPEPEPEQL

Binder | IL-2 production, antigen-specific T lymphocyte stimulation test, 0.016 ug/ml, N = 1 [pg/mL] | IL-2 production, antigen-specific T lymphocyte stimulation test, 0.016 ug/ml, N = 2 [pg/mL] | IL-2 production, antigen-specific T lymphocyte stimulation test, 0.08 ug/ml, N = 1 [pg/mL] | IL-2 production, antigen-specific T lymphocyte stimulation test, 0.08 ug/ml, N = 2 [pg/mL] | IL-2 production, antigen-specific T lymphocyte stimulation test, 0.4 ug/ml, N = 1 [pg/mL] | IL-2 production, antigen-specific T lymphocyte stimulation test, 0.4 ug/ml, N = 2 [pg/mL] | IL-2 production, antigen-specific T lymphocyte stimulation test, 2 ug/ml, N = 1 [pg/mL] | IL-2 production, antigen-specific T lymphocyte stimulation test, 2 ug/ml, N = 2 [pg/mL] | IL-2 production, antigen-specific T lymphocyte stimulation test, 10 ug/ml, N = 1 [pg/mL] | IL-2 production, antigen-specific T lymphocyte stimulation test, 10 ug/ml, N = 2 [pg/mL]
B6 | 348 | 353 | 499 | 491 | 794 | 599 | 818 | 866 | 584 | 722
B7 | 452 | 420 | 437 | 467 | 779 | 757 | 853 | 792 | 850 | 627
B8 | 366 | 420 | 666 | 559 | 883 | 986 | 876 | 825 | 770 | 789
B9 | 402 | 433 | 525 | 555 | 835 | 954 | 914 | 915 | 671 | 795
B10 | 384 | 334 | 498 | 534 | 804 | 678 | 825 | 673 | 890 | 801
